Reference: patent publication CN113912709A (SHENZHEN NATIONAL CLINICAL RES CENTER FOR INFECTIOUS …, dated 2022)
Changes are numbered by the printed parent chain.

B1: VacW-105 (antibody, V domains shown)
VH: QVQLVQSGAEVKKPGSSVKVSCKASGGTFRSYTISWVRQAPGQGLEWMGRILPILGIANYAQKFQGRVTITADKSTSTAYMELSSLRSEDTAVYYCARVTGAPVESAAWFDPWGQGTLVTVSS
VL: not shown
B2: VacW-138 (antibody, V domains shown)
VH: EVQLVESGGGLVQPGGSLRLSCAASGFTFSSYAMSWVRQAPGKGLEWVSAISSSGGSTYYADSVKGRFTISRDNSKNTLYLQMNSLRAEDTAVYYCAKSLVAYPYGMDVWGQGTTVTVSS
VL: AIQLTQSPFSLSASVGDRVTITCRASQGISSALAWYQQKPGKAPKLLIYDASSLESGVPSRFSGSGSGTDFTLTISSLQPEDFATYFCQQVDTYQFTFGPGTKVDIK
B3: VacW-201 (antibody, V domains shown)
VH: EVQLVESGGGLVQPGGSLRLSCAASGFTFSSYWMNWVRQAPGKGLEWVANIKQDGSEKYYVDSVKGRFTISRDNAKNSLYLQMNSLRAEDTAVYYCARMEYPYGGVDYWGQGTLVTVSS
VL: NFMLTQPHSVSESPGKTVTISCTGSSGSIASNYVQWYQQRPGSAPTTVIYEDNQRPSGVPDRFSGSIDSSSNSASLTISGLKTEDEADYYCQSYDSSNRNWVFGGGTKLTVL
B4: VacW-212 (antibody, V domains shown)
VH: B3 VH with G55E, Y80F, A88V, V106I, S119A
VL: B3 VL
B5: VacW-209 (antibody, V domains shown)
VH: QVQLVESGGGVVQPGRSLRLSCAASGFTFSSIAMHWVRQAPGKGLEWVAVMSFDGSIKYYGDSVKGRFTISRDNSKSTLYLQMNSLRAEDTAVYYCARGVQGYYDRSGYYNLDYNYGMDVWGQGTTVTVSS
VL: QSVLTQPPSVSGAPGQRVTISCTGSSSNIGAGYDVHWYQQLPGTAPKLLIYGNSNRPSGVPDRFSGSKSGTSASLAITGLQAEDEADYYCQSYDSSLSGWVFGGGTKLTVL
B6: VacW-215 (antibody, V domains shown)
VH: EVQLVESGGGLIQPGGSLRLSCAASGFTVSSNYMSWVRQAPGKGLEWVSVIYSGGSTYYADSVKGRFTISRDNSKNTLYLQMNSLRAEDTAVYYCARSTWLRGGFDYWGQGTLVTVSS
VL: B3 VL with R99H, N100F, W101Y, G105T, L109V

Key:
Assay in all cases: SPR, Biacore 8K, RBD on CM5 chip, IgG injected, 1:1 model
[1] = target: T1, SARS-CoV-2 Kappa variant RBD protein (L452R and E484Q) (SARS-CoV-2, UniProt P0DTC2 319-541)
T1 construct: domain: RBD; also called L452R和E484Q

[2] = target: T2, SARS-CoV-2 Delta variant RBD protein (L452R and T478K) (SARS-CoV-2, UniProt P0DTC2 319-541)
T2 construct: domain: RBD; also called L452R和T478K

[3] = target: T3, SARS-CoV-2 RBD protein T478K mutant (SARS-CoV-2, UniProt P0DTC2 319-541)
T3 construct: domain: RBD

[4] = target: T4, SARS-CoV-2 RBD protein E484Q mutant (SARS-CoV-2, UniProt P0DTC2 319-541)
T4 construct: domain: RBD

Binder | Kd [1] [nM] | Kd [2] [nM] | Kd [3] [nM] | Kd [4] [nM]
B1 | 4.13 | 5.1 | 3.37 | 5.22
B2 | 3.17 | 3.11 | 1.75 | 3.12
B3 | 1.71 | 2.14 | 1.64 | 2.25
B4 | 1.32 | 1.83 | 1.22 | 1.74
B5 | 0.0234 | 0.0467 | 0.023 | 0.033
B6 | 0.676 | 1.02 | 0.683 | 0.967
